Data reported in article PMC10696041 (2023).

Molecular target: T1, PCPE1 (Homo sapiens (Human), UniProt Q15113)
T1 chain: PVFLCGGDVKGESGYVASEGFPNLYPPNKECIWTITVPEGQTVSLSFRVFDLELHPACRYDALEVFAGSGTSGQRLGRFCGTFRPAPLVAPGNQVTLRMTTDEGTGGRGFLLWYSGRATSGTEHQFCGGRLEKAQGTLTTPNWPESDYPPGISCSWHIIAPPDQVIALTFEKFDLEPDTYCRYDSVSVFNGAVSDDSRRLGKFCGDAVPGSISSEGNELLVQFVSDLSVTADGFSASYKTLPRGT
Assay: Ki app, fluorogenic peptide

apparent Ki: > 150 nM
B1: BMP1 (protein)
chain: AATSRPERVWPDGVIPFVIGGNFTGSQRAVFRQAMRHWEKHTCVTFLERTDEDSYIVFTYRPCGCCSYVGRRGGGPQAISIGKNCDKFGIVVHELGHVVGFWHEHTRPDRDRHVSIVRENIQPGQEYNFLKMEPQEVESLGETYDFDSIMHYARNTFSRGIFLDTIVPKYEVNGVKPPIGQRTRLSKGDIAQARKLYKCPACGETLQDSTGNFSSPEYPNGYSAHMHCVWRISVTPGEKIILNFTSLDLYRSRLCWYDYVEVRDGFWRKAPLRGRFCGSKLPEPIVSTDSRLWVEFRSSSNWVGKGFFAVYEAICGGDVKKDYGHIQSPNYPDDYRPSKVCIWRIQVSEGFHVGLTFQSFEIERHDSCAYDYLEVRDGHSESSTLIGRYCGYEKPDDIKSTSSRLWLKFVSDGSINKAGFAVNFFK
